Values of other authors as cited in PMC11939966.
pKd: −log10 of the molar value.

Molecular target: Tristetraprolin (TTP) (Homo sapiens) (UniProt P26651)
Assay: ITC

UniProt P26651, sequence (P26651 whole entry): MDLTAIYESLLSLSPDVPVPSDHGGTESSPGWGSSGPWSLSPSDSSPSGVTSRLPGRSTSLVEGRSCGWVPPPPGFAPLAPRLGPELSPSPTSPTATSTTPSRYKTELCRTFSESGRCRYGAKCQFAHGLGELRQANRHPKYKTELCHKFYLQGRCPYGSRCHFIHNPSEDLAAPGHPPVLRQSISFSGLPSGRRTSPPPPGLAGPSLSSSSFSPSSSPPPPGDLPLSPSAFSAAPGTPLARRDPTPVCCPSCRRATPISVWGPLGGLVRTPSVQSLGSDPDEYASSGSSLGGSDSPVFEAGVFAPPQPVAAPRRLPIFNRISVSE

pKd: 5.70
Substance: CNOT1 800-999 (from UniProt A5YKK6)
